Molecular target: molecular probe of the formula (11) (SEQ ID NO. 11), exendin-4(1-39)-Lys40 with the Lys40 side chain labeled …
Experiment: ex vivo autoradiography of pancreas sections of MIP-GFP mice after i.v. injection; radioactivity co-localised with the GFP signal of beta-cells

B1: GLP-1 receptors of the pancreatic beta-cells (MIP-GFP mice) (receptor)
chain: GPRPQGTTVSLSETVQKWREYRRQCQRFLTEAPLLATGLFCNRTFDDYACWPDGPPGSFVNVSCPWYLPWASSVLQGHVYRFCTAEGLWLHKDNSSLPWRDLSECEESKRGERNFPEEQLLSLYIIYTVGYALSFSALVIASAILVGFRHLHCTRNYIHLNLFASFILRALSVFIKDAALKWMYSTAAQQHQWDGLLSYQDSLGCRLVFLLMQYCVAANYYWLLVEGVYLYTLLAFSVFSEQRIFKLYLSIGWGVPLLFVIPWGIVKYLYEDEGCWTRNSNMNYWLIIRLPILFAIGVNFLIFIRVICIVVSKLKANLMCKTDIKCRLAKSTLTLIPLLGTHEVIFAFVMDEHARGTLRFIKLFTELSFTSFQGLMVAILYCFVNNEVQMEFRKCWERWRLEHLNIQRDCSMKPLKCPTSSVSSGATVGSSVYAATCQSSYS
notes: whole, on cells; Endogenous receptor in mouse pancreas; also called glucagon-like peptide-1 receptor
binding result: binds

From patent US20110081663A1 (KYOTO UNIVERSITY, published 2011)
